Reference: paper PMC7689490, “Designed CXCR4 mimic acts as a soluble chemokine receptor that blocks atherogenic inflammation by agonist-specific targeting” (Nature Communications, 2020)
Several values for one entry are separate records, joined by “and”; a condition that tells them apart may be missing. Equal entries are not always repeated.

Tests used:
[1] = target: Fluos-msR4M-LS (fluorescein-labelled ECL1[97–110] and ECL2[182–196] joined only by a disulfide bridge, no synthetic linker) (human), P61073; assay: other fluorescence titration; Fluos-labelled CXCR4 ectodomain peptide at 5 nM titrated with unlabelled MIF, MIF(10xAla), CXCL12 or MIF peptide fragments; 10 mM sodium phosphate, pH 7.4, 1% HFIP; emission at 522 nm; apparent KD, 1/1 binding model; conditions: remark: other sources report otherwise
[2] = target: Fluos-msR4M-LS (human), P61073; assay: other fluorescence titration; 5 nM Fluos-labeled ectodomain peptide titrated with unlabeled MIF, MIF peptide or CXCL12; 10 mM sodium phosphate, pH 7.4, 1% HFIP; emission at 522 nm; apparent KD, 1/1 binding model; one constant for each of three curves; conditions: remark: other sources report otherwise

Binder	Kd [1]	Kd [2]
macrophage migration-inhibitory factor (MIF), recombinant human, unlabelled, P14174 1-115 (natural protein, here or on the partner: disulfide bridge from Cys-109 to Cys-186 of the ECL2 chain; C-terminal amide; Fluos (fluorescein) label, chain and position not stated | disulfide bridge from Cys-186 to Cys-109 of the ECL1 chain; C-terminal amide) MPMFIVNTNVPRASVPDGFLSELTQQLAQATGKPPQYIAVHVVPDQLMAFGGSSEPCALCSLHSIGKIGGAQNRSYSKLLCGLLAERLRISPDRVYINYYDMNAANVGWNNSTFA	6.9 nM	
macrophage migration-inhibitory factor (MIF), recombinant human, P14174 1-115 (natural protein, here or on the partner: disulfide bridge from Cys-109 to Cys-186 of the ECL2 chain; C-terminal amide; Fluos label on the molecule (chain and position not stated) | disulfide bridge from Cys-186 to Cys-109 of the ECL1 chain; C-terminal amide) MPMFIVNTNVPRASVPDGFLSELTQQLAQATGKPPQYIAVHVVPDQLMAFGGSSEPCALCSLHSIGKIGGAQNRSYSKLLCGLLAERLRISPDRVYINYYDMNAANVGWNNSTFA		9 nM and 5 nM
